B1: DART-A-M21 (bispecific antibody)
chain 1: DFVMTQSPDSLAVSLGERVTMSCKSSQSLLNSGNQKNYLTWYQQKPGQPPKLLIYWASTRESGVPDRFSGSGSGTDFTLTISSLQAEDVAVYYCQNDYSYPYTFGQGTKLEIKGGGSGGGGEVQLVESGGGLVQPGGSLRLSCAASGFTFSTYAMNWVRQAPGKGLEWVGRIRSKYNNYATYYADSVKDRFTISRDDSKNSLYLQMNSLKTEDTAVYYCVRHKNFGNSYVSFFAYWGQGTLVTVSSGGCGGGKVAALKEKVAALKEKVAALKEKVAALKE
chain 2: QAVVTQEPSLTVSPGGTVTLTCRSSTGAVTTSNYANWVQQKPGQAPRGLIGGTNKRAPWTPARFSGSLLGGKAALTITGAQAEDEADYYCALWYSNLWVFGGGTKLTVLGGGGSGGGGEVQLVQSGAELKKPGASVKVSCKASGYTFTDYYMKWVRQAPGQGLEWIGDIIPSNGATFYNQKFKGRVTITVDKSTSTAYMELSSLRSEDTAVYYCARSHLLRASWFAYWGQGTLVTVSSGGCGGGEVAALEKEVAALEKEVAALEKEVAALEK
B2: DART-A-M10 (bispecific antibody)
chain 1: B1 chain 1 with K223G, F225I, F232W
chain 2: B1 chain 2
B3: DART-A-M5 (bispecific antibody)
chain 1: B1 chain 1 with K223G, Y229G, F232W
chain 2: B1 chain 2
B4: DART-A-M16 (bispecific antibody)
chain 1: B1 chain 1 with Y153D, K223G, F232W
chain 2: B1 chain 2

Consider four molecules from patent US20240043537A1.

Substitutions are numbered along the chain they refer to.

The target in the first experiment is CD3 on T-cells (UniProt P07766). Kind of experiment: cell-based or functional assay.
Sequence of CD3 on T-cells (P07766 23-207): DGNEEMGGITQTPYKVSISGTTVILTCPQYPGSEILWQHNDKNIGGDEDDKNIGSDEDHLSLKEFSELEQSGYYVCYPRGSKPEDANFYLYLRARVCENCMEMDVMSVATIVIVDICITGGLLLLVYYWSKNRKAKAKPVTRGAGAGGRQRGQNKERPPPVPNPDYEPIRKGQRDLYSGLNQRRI
Turning to B1, the EC50 of cytolysis at 18 hours (CTL assay, Pan-T-cells and MOLM-13, E:T = 5:1) is 0.026 ng/mL; the R: ratio of 18 hour EC50 to DART-A-WT (CTL assay, Pan-T-cells and MOLM-13, E:T = 5:1) was found to be 0.3; the R: ratio of 42 hour EC50 to DART-A-WT (CTL assay, Pan-T-cells and MOLM-13, E:T = 5:1) is 0; the max % CytoTox at 18 hours (CTL assay, Pan-T-cells and MOLM-13, E:T = 5:1) was found to be 36.5%. Besides, the max % CytoTox at 42 hours (CTL assay, Pan-T-cells and MOLM-13, E:T = 5:1) came out at 29.9%.

Turning to B2, the EC50 of cytolysis at 18 hours (CTL assay, Pan-T-cells and MOLM-13, E:T = 5:1) stood at 0.426 ng/mL; the EC50 of cytolysis at 42 hours (CTL assay, Pan-T-cells and MOLM-13, E:T = 5:1) is 0.095 ng/mL; the R: ratio of 18 hour EC50 to DART-A-WT (CTL assay, Pan-T-cells and MOLM-13, E:T = 5:1) was determined as 5.4; the R: ratio of 42 hour EC50 to DART-A-WT (CTL assay, Pan-T-cells and MOLM-13, E:T = 5:1) was 33.7. The same molecule registered a max % CytoTox at 18 hours (CTL assay, Pan-T-cells and MOLM-13, E:T = 5:1) of 39.3%; a max % CytoTox at 42 hours (CTL assay, Pan-T-cells and MOLM-13, E:T = 5:1) of 29.9%.

Take B3: the EC50 of cytolysis at 18 hours (CTL assay, Pan-T-cells and MOLM-13, E:T = 5:1) was determined as 0.225 ng/mL; the EC50 of cytolysis at 42 hours (CTL assay, Pan-T-cells and MOLM-13, E:T = 5:1) was 0.011 ng/mL; the R: ratio of 18 hour EC50 to DART-A-WT (CTL assay, Pan-T-cells and MOLM-13, E:T = 5:1) turned out to be 2.9; the R: ratio of 42 hour EC50 to DART-A-WT (CTL assay, Pan-T-cells and MOLM-13, E:T = 5:1) came out at 3.8. Also, the max % CytoTox at 18 hours (CTL assay, Pan-T-cells and MOLM-13, E:T = 5:1) is 40.8%; the max % CytoTox at 42 hours (CTL assay, Pan-T-cells and MOLM-13, E:T = 5:1) was determined as 28.4%.

The target of another experiment is CD3 (as used for the BIACORE kinetics of Table 11) (UniProt P07766). The experiment can be described thus: SPR (BIACORE).
Sequence of CD3 (as used for the BIACORE kinetics of Table 11) (P07766 23-126): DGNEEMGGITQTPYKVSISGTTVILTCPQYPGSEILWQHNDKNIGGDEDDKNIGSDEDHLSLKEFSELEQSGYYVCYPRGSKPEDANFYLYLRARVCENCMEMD
As usually defined, the Kd is the concentration at which binding is half-saturated. A low value points to a tighter complex. What is called koff is the rate constant with which the complex falls apart. A word on the kon: it is the rate constant with which the complex forms. Read a high kon as fast association. As to B1, the dissociation constant Kd was found to be 4.18 nM, the R (KD ratio to DART-A-WT) worked out at 0.5, the R (ka ratio to DART-A-WT) amounted to 4.9 and the R (kd ratio to DART-A-WT) was 2.5. Besides, the dissociation rate constant (koff) worked out at 0.0103 s⁻¹ and the kon worked out at 2.45e+06 M⁻¹ s⁻¹.

On to B2, for which the Kd turned out to be 43.3 nM, the R (KD ratio to DART-A-WT) was 5.3, the R (ka ratio to DART-A-WT) came to 1.4 and the R (kd ratio to DART-A-WT) was 7.6. This molecule also showed a koff of 0.031 s⁻¹ and an on-rate (kon) of 717000 M⁻¹ s⁻¹.

With B3, the Kd came to 21.4 nM, the R (KD ratio to DART-A-WT) is 2.6, the R (ka ratio to DART-A-WT) was determined as 2.6 and the R (kd ratio to DART-A-WT) came out at 6.8. The same molecule registered a koff of 0.028 s⁻¹ and a kon of 1.31e+06 M⁻¹ s⁻¹.

Regarding B4, the Kd came out at 301 nM, the R (KD ratio to DART-A-WT) amounted to 37, the R (ka ratio to DART-A-WT) was found to be 0.7 and the R (kd ratio to DART-A-WT) worked out at 25. Also, the koff was 0.104 s⁻¹ and the kon was 347000 M⁻¹ s⁻¹.
